Reference: US20070054332A1, “Syndecan 1 ectodomain inhibits cancer” (priority 2005, published 2007)
“Also recorded” adds a separate entry of the source.

Experiments:
[1] = tested on: MDA-MB-231 cell spreading; details: soluble ectodomain, dose-dependent; cited from earlier work
[2] = tested on: S115 mouse mammary tumor cells; details: nanomolar concentrations; Mali et al. (1994); cited from earlier work
MDA-MB-231 cell = details: soluble ectodomain, dose-dependent; cited from earlier work
αvβ5 integrin = molecular target: T1, αvβ5 integrin (Mus musculus, UniProt O70309+P43406); details: B82L mouse fibroblasts, competing concentrations; McQuade et al., 2006; cited from earlier work
T1 construct: B82L mouse fibroblasts expressing this integrin; endogenous in cells; host or cells: B82L mouse fibroblasts
T1 sequence (P43406 31-1044): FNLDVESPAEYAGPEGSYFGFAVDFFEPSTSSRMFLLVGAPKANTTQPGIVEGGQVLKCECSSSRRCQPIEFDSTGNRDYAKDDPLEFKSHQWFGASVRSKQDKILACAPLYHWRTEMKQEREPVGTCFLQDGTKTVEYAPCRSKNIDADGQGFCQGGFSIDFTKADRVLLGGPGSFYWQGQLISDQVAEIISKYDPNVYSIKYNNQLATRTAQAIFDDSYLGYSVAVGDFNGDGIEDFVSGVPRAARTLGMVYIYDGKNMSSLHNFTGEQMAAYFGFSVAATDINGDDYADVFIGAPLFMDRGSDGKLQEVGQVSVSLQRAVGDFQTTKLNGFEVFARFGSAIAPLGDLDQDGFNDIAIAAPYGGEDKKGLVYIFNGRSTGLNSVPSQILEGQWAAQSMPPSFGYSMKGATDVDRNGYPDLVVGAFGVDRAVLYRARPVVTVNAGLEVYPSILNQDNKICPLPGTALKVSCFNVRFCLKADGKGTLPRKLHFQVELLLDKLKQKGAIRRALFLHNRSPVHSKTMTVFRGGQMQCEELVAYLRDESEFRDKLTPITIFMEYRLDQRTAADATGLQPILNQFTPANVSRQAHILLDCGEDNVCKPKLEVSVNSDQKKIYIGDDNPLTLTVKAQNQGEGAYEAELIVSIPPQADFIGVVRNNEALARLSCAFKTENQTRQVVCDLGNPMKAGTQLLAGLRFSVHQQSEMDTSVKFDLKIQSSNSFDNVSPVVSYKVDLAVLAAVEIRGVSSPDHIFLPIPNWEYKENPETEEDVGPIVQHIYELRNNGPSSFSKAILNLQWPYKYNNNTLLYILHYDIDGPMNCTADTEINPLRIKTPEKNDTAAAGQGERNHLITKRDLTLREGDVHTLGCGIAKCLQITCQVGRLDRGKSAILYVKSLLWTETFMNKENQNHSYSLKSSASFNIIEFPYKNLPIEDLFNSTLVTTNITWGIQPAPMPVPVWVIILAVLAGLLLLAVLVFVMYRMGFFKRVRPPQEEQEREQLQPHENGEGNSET
T1 sequence (O70309 24-798): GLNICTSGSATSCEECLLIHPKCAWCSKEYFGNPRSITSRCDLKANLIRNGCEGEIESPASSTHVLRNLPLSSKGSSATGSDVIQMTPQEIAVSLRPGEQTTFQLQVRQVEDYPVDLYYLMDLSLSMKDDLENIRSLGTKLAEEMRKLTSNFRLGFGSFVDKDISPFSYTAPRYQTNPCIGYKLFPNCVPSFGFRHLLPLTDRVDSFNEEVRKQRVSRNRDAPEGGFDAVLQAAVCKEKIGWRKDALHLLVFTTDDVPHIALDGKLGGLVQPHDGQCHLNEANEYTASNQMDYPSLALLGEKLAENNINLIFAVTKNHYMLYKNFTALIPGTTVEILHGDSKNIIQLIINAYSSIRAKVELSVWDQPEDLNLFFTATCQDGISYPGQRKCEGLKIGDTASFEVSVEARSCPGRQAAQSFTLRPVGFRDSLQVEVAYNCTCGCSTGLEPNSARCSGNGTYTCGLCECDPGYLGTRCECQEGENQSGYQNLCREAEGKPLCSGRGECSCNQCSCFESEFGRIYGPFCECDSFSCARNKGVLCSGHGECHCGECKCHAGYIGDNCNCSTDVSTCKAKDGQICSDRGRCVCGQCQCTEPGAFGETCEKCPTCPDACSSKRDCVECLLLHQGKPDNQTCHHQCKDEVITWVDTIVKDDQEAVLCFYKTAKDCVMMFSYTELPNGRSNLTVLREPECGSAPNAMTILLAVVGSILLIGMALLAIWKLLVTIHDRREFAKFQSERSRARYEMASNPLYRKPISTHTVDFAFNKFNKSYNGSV

[3] = molecular target: T2, Sdc1 and the αvβ5 integrin complex (Mus musculus, UniProt O70309+P43406); details: B82L cells, competing concentration; McQuade et al., 2006; cited from earlier work
T2 construct: immunoprecipitation of Sdc1 from the B82L cells co-precipitates the integrin with the Sdc1; endogenous in cells; host or cells: B82L mouse fibroblasts
T2 sequence (P43406 31-1044): T1 sequence (P43406 31-1044)
T2 sequence (O70309 24-798): T1 sequence (O70309 24-798)

[4] = tested on: MDA-MB-231 human mammary carcinoma cells; assay: Rescue of proliferation in siRNA-treated cells by mouse Sdc1 constructs; type: cell-based; details: MDA-MB-231, endogenous human Sdc1 silenced, mouse construct expressed
Protocol: Full length mouse Sdc1 (FLmS1),GPI linked mS1ED (GPImS1ED) or a construct of mouse Sdc1 in which the heparan sulfate attachment sites are mutated (TDM) were stably transfected into MDA-MB-231 cells and selected with 1.5 mg/ml G418 (Gibco BRL). These stable transfectants were maintained in culture in the presence of G418 and were checked periodically for constant expression of FLmS 1, GPImS1ED or TDM. Cells expressing these transgenes at similar levels were sorted by FACS before the experiments. Cells transfected with the empty pcDNA3 vector (NEO) were used as control.
Silencing of human Sdc1 with specific short interfering RNA (siRNA). Purified, duplexed siRNAs specific for human Sdc1 were purchased from Ambion (Austin, Tex.). The siRNA sequences targeting human Sdc1 were: hsdc1-1, […]; hsdc1-2, […]; hsdc1-3, […]. […]
Assessment of Cell Growth. To quantify cell proliferation, cells grown in matrigel (3D culture) or on top of matrigel (2D culture) were released from the matrigel by 45-60 min incubation at 37° C. with Dispase (BD Biosciences), washed with Dulbecco's modified Eagle's medium (DMEM) 2-3 times and resuspended into 400 ul fresh DMEM for cell counting by hemocytometer. Triplicate wells, replicated in at least three experiments, were used for the quantification.

B1: soluble syndecan-4 ectodomain: soluble syndecan-4 ectodomain, specificity control (protein, UniProt P31431 19-145, looked up)
extracellular domain: ESIRETEVIDPQDLLEGRYFSGALPDDEDVVGPGQESDDFELSGSGDLDDLEDSMIGPEVVHPLVPLDNHIPERAGSGSQVPTEPKKLEENEVIPKRISPVEESEDVSNKVSMSSTVQGSNIFERTE
modifications: extracellular domain
notes: soluble syndecan-4 ectodomain, specificity control
- inhibition of MDA-MB-231 cell spreading [1]: fails to compete

B2: free ectodomain: free ectodomain from culture medium of syndecan 1-transfected S115 or normal murine mammary gland cells, bearing heparan sulfate (Mali et al., 1994) (protein, UniProt P18828 23-255, looked up)
extracellular domain: QIVAVNVPPEDQDGSGDDSDNFSGSGTGALPDTLSRQTPSTWKDVWLLTATPTAPEPTSSNTETAFTSVLPAGEKPEEGEPVLHVEAEPGFTARDKEKEVTTRPRETVQLPITQRASTVRVTTAQAAVTSHPHGGMQPGLHETSAPTAPGQPDHQPPRVEGGGTSVIKEVVEDGTANQLPAGEGSGEQDFTFETSGENTAVAAVEPGLRNQPPVDEGATGASQSLLDRKEVLG
modifications: extracellular domain heparan sulfate
- growth of S115 tumor cells [2]: suppress the growth

B3: Soluble murine Sdc1 ectodomain: soluble murine Sdc1 ectodomain (Beauvais and Rapraeger, 2003) (protein, UniProt P18828 23-255, looked up)
extracellular domain: B2 extracellular domain
modifications: extracellular domain
- inhibition of MDA-MB-231 cell spreading [1]: competitively inhibits
- inhibition in short-term migration assays (MDA-MB-231 cell): competitively inhibits

B4: recombinant Sdc1 ectodomain: recombinant Sdc1 ectodomain added at competing concentrations (McQuade et al., 2006) (protein, UniProt P18828 23-255, looked up)
extracellular domain: B2 extracellular domain
modifications: extracellular domain
- αvβ5 integrin activity (αvβ5 integrin): inactivated
- co-precipitation of the integrin with Sdc1 [3]: disrupted

B5: mouse Sdc1: Full length mouse Sdc1 stably transfected into MDA-MB-231 cells (protein, UniProt P18828 1-311, looked up)
chain: MRRAALWLWLCALALRLQPALPQIVAVNVPPEDQDGSGDDSDNFSGSGTGALPDTLSRQTPSTWKDVWLLTATPTAPEPTSSNTETAFTSVLPAGEKPEEGEPVLHVEAEPGFTARDKEKEVTTRPRETVQLPITQRASTVRVTTAQAAVTSHPHGGMQPGLHETSAPTAPGQPDHQPPRVEGGGTSVIKEVVEDGTANQLPAGEGSGEQDFTFETSGENTAVAAVEPGLRNQPPVDEGATGASQSLLDRKEVLGGVIAGGLVGLIFAVCLVAFMLYRMKKKDEGSYSLEEPKQANGGAYQKPTKQEEFYA
modifications: full-length
notes: Full length mouse Sdc1 stably transfected into MDA-MB-231 cells
- rescue of proliferation in siRNA-treated cells [4]: Rescue of proliferation; also recorded: rescues proliferation
